Earlier results, collected in PMC4411291.

Target: Calmodulin (UniProt P0DP23)

Kd: 1000 nM
Substance: STIM2 C-terminal site (from UniProt Q9P246)
